Test results published in article PMC8539640.
Values belong to the substance of their own block, whether it stands above or below them.

Key:
[1] = target: Bam35 P26 (transglycosylase and integral membrane scaffolding, suggested), bait pBN_26 (Bacillus virus Bam35); experiment: two-hybrid
[2] = target: Bam35 P22 (special vertex, suggested), bait pBN_22 (Bacillus virus Bam35); experiment: two-hybrid; pairwise Y2H: Bam35 ORF baits (pBC or pBN) against full-length HER1410 ORF preys (pPC or pPN); HIS3 reporter, -LWH with 0, 0.025, 0.1, 3, 10, 25, 50 and 100 mM 3AT; positive when growth was higher than in the self-activation controls with the empty vectors
[3] = target: Bam35 P19t (P19 without its predicted transmembrane domain), bait pBN_19t (Bacillus virus Bam35); experiment: two-hybrid

Substance: B. thuringiensis HER1410 protein of locus 16200, full length, prey pPC_(16200) (natural protein)
Max. 3AT (mM) (B35ORF BtORF) [1]: 3 mM

Max. 3AT (mM) (B35ORF BtORF) [2]: 50 mM
Substance: B. thuringiensis HER1410 YadS, full length, prey pPC_yadS(28175) (natural protein)

other [3]: 100 mM
Substance: B. thuringiensis HER1410 OmpR, full length, prey pPC_ompR(22050) (natural protein)
